This assay concerns the target T1, S. cerevisiae elongation factor eEF2 (C-terminally His6-tagged), bound with GDP and sordarin (S. cerevisiae, UniProt P32324 1-842, diphthamide at 699).
T1 construct: elongation factor 2 (eEF2), S. cerevisiae; residue numbers as in S. cerevisiae eEF2 (H108, H583, H694, Diph699); Complex assembled with eEF2•GTP and sordarin; also called eukaryotic elongation factor 2; translocase; source: yeast TKY675 cells, purified (Ni-NTA, SP Sepharose cation exchange, Superdex 200)
The experiment in a line: cryo-EM structure; 80S•TSV IRES•eEF2•GDP•sordarin complex, five structures (I-V) from one specimen; assembled from 40S (0.8 uM), 60S (0.8 uM), TSV IRES RNA (8 uM), eEF2 (5 uM), sordarin (800 uM), GTP (1 mM); 30°C; 45 mM HEPES·KOH pH 7.5, 10 mM MgCl2, 100 mM KCl, 2.5 mM spermine, 2 mM β-mercaptoethanol. Particulars: both partners purified.

T1 sequence (P32324 whole entry): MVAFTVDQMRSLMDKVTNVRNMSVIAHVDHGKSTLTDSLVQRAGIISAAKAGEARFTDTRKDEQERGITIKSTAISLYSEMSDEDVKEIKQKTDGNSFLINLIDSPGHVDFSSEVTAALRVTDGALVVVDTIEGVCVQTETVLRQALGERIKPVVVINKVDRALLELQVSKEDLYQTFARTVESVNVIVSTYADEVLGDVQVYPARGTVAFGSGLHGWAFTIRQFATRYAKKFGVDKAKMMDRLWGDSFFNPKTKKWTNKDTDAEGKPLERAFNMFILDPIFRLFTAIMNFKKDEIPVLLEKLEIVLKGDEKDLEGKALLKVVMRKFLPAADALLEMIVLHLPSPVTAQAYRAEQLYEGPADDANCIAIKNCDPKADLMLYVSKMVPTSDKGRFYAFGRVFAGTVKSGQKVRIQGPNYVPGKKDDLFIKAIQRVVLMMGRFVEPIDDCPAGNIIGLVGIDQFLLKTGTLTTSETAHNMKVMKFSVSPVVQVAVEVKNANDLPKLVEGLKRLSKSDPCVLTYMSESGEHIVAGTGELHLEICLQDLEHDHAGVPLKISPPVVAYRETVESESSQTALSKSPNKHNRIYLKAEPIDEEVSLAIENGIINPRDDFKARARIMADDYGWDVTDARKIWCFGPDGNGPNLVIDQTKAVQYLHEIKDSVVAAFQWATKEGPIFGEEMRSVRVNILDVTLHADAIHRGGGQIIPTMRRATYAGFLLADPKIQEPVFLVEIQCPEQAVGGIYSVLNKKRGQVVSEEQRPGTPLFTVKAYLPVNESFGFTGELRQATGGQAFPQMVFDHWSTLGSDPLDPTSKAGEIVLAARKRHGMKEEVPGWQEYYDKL

B1: ribosomal protein P0 of the S. cerevisiae 60S subunit (P stalk) (natural protein, UniProt P05317 1-312, looked up)
chain: MGGIREKKAEYFAKLREYLEEYKSLFVVGVDNVSSQQMHEVRKELRGRAVVLMGKNTMVRRAIRGFLSDLPDFEKLLPFVKGNVGFVFTNEPLTEIKNVIVSNRVAAPARAGAVAPEDIWVRAVNTGMEPGKTSFFQALGVPTKIARGTIEIVSDVKVVDAGNKVGQSEASLLNLLNISPFTFGLTVVQVYDNGQVFPSSILDITDEELVSHFVSAVSTIASISLAIGYPTLPSVGHTLINNYKDLLAVAIAASYHYPEIEDLVDRIENPEKYAAAAPAATSAASGDAAPAEEAAAEEEEESDDDMGFGLFD
notes: 60S acidic ribosomal protein P0 (uL10), S. cerevisiae; part of the P stalk of the 60S subunit; Stood in the assay as a subunit of the 60S ribosomal subunit within the 80S ribosome, not as an isolated protein; also called eukaryote-specific protein P0; source: endogenous, in 60S subunits from 80S ribosomes purified from S. cerevisiae strain W303
B1: the binding result is listed as “binds”.

These data come from PMC4896748, “Ensemble cryo-EM uncovers inchworm-like translocation of a viral IRES through the ribosome” (eLife, 2016).
